Values belong to the molecule of their own block, whether it stands above or below them.
Experiments:
Human DLL3-ECD = biological target: T1, Human DLL3-ECD (Homo sapiens, UniProt Q9NYJ7); assay: SPR binding to human DLL3-ECD (Example 11); conditions: immobilized biotinylated target, 1:1 Langmuir, Tables 14, 15
T1 construct: human DLL3 protein (Q9NYJ7, Gene ID: 10683, residues 27 to 466) linked via an Avi-tag; 3C protease recognition site (C); Fc knob into hole (C); purchased Evitria; host or cells: CHO cells
T1 sequence (Q9NYJ7 27-466): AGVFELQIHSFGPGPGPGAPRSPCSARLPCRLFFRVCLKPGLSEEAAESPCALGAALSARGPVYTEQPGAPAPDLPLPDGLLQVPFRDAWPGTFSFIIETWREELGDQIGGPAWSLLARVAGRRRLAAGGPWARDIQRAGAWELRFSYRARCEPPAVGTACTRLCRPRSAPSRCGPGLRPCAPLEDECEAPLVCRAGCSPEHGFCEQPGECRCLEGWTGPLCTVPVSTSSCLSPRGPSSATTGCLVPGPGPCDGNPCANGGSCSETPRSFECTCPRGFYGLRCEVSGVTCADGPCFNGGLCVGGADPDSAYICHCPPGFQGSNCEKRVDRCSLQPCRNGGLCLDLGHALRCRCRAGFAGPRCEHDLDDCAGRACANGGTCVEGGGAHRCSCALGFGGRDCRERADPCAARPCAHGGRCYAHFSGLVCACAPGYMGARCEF
Description: Two target formats were chosen: i) the first target protein consisted of the extracellular domain of human DLL3 protein (Q9NYJ7, Gene ID: 10683, residues 27 to 466) linked via an Avi-tag (for site-directed biotinylation), followed by a 3C protease recognition site, to a Fc knob into hole (hDLL3-Avi-Fckih); ii) the second target protein consisted of a very similar design including more residues of the extracellular domain of DLL3 (Q9NYJ7, Gene ID: 10683, res 27-470), directly linked to the Fc knob into hole domain followed by an Avi-tag (hDLL3-Fckih-Avi).
hDLL3-Avi-Fckih was expressed in CHO cells (Chinese hamster ovary cells) by Evitria and purified by a protein A derivative-based affinity chromatography followed by preparative size-exclusion chromatography (SEC). The material was up-concentrated in PBS pH 7.4 to 0.69 mg/ml and in vitro biotinylated using recombinant BirA. The final material was monomeric on size exclusion and stored in PBS pH 7.4 at the final concentration of 0.35 mg/ml.
The binding of 2D ankyrin repeat protein MAM279 as well as of MAM279 conjugated to the chelator DOTAM (the conjugation was performed as described in Example 3) to different target proteins was analyzed by Surface Plasmon Resonance (SPR). Specifically, the proteins analyzed were (i) MAM279 (SEQ ID NO: 11), with a Glycine-Serine (GS) at its N-terminal end and an N-terminal His-tag (SEQ ID NO: 19); and (ii) MAM279 (SEQ ID NO: 11), with a Glycine-Serine (GS) at its N-terminal end and a tag (SEQ ID NO: 10) at its C-terminal end (resulting in GS-MAM279-tag (SEQ ID NO: 15)), conjugated to the chelator DOTAM as described in Example 3.
A surface plasmon resonance (SPR) assay was used to determine the binding kinetics of the two proteins (i.e. MAM279 with and without conjugation to chelator) to different targets: the Extra-Cellular Domain (ECD) of human DLL3, the ECD of cynomolgus monkey DLL3, the N-Terminal Domain (NTD) only of human DLL3, and the NTD dog DLL3. The data were generated using BioRad ProteOn instrument in SPR running buffer (PBS, pH 7.4 containing 0.005% Tween 20©). […] The chip was coated with biotinylated target to reach a signal intensity of 1516 RU (human ECD), 257 RU (human NTD), 1500 RU (cyno ECD) and 228 RU (dog NTD). All analytes (various concentrations in 3-fold dilutions ranging from 500-6.17 nM) were injected in succession for 240 s (100 μl/min) and dissociation was recorded for 10800 s (100 μl/min). Each injection was followed by a regeneration step with 16 mM H3PO4 for 18 s. […] The obtained SPR traces were used to determine on-rate and off-rate interaction parameters.

mouse serum albumin = biological target: T2, mouse serum albumin (Mus musculus, UniProt P07724); assay: SPR binding to mouse serum albumin (Example 18); conditions: immobilized MSA, 1:1 Langmuir, Table 21
T2 construct: purchased Sigma-Aldrich
Protocol: SPR multi-trace analyses were performed similarly as described in previous Examples. The following ankyrin repeat proteins analyzed: (i) MAM279 (SEQ ID NO: 11) (with a Glycine-Serine (GS) at its N-terminal end); and (ii) MAM279 (SEQ ID NO: 11), with a Glycine-Serine (GS) at its N-terminal end and a tag (SEQ ID NO: 10) at its C-terminal end (resulting in GS-MAM279-tag (SEQ ID NO: 15)), conjugated to the chelator DOTAM as described in Example 3.
All analytes (3-fold dilution ranging from 600-7.41 nM) were injected in succession for 240 s and dissociation was recorded for 600 s using a constant flow of 25 μl/min (HSA) or 100 μl/min (MSA) (25 μl/min). […] The obtained SPR traces were used to determine the DARPin-serum albumin interaction parameters, and results are summarized in Table 21.

T2 sequence (P07724 25-608): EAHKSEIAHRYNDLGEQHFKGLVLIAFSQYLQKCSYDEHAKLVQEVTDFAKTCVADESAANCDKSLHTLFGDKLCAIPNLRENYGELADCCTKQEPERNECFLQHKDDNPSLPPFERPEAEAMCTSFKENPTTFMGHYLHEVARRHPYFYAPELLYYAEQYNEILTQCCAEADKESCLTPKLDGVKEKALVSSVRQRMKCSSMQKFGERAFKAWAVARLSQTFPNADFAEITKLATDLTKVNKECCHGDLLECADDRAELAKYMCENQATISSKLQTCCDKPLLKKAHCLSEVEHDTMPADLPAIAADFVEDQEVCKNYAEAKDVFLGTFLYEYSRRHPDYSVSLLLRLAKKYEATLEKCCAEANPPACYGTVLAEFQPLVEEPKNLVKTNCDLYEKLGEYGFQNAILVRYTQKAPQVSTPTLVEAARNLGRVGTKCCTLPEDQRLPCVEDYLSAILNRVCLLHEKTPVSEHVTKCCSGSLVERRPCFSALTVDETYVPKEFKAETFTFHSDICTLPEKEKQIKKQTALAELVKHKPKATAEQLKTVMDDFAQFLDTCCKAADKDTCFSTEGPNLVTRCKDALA

Kd (Human DLL3-ECD): 0.174 nM
Koff Human DLL3-ECD (Human DLL3-ECD): 1.45e-05 s⁻¹
Kon Human DLL3-ECD (Human DLL3-ECD): 83500 M⁻¹ s⁻¹
B1: MAM279: Two domain (2D) ankyrin repeat protein: serum albumin-specific domain (SEQ ID NO: 7), PT linker, DLL3-specific domain of MAM093 (protein)
chain: DLGKKLLEAARAGQDDEVRELLKAGADVNAKDYFSHTPLHLAARNGHLKIVEVLLKAGADVNAKDFAGKTPLHLAADAGHLEIVEVLLKAGADVNAQDIFGKTPADIAADAGHEDIAEVLQKAAGSPTPTPTTPTPTPTTPTPTPTGSDLGKKLLAAAAQGQDDEVRELLKAGANVNAKDLFGYTPLHLAAWRGHLEIVEVLLKAGADVNAKDAAGETPLHLAAWFGHLEIVEVLLKAGADVNAQDLQGKTPADLAAKEGHEDIAEVLQKAA
modifications: Ankyrin repeat protein (MAM279)
Kd (mouse serum albumin): 144 nM
Koff MSA (mouse serum albumin): 0.0383 s⁻¹
Kon MSA (mouse serum albumin): 267000 M⁻¹ s⁻¹

Koff Human DLL3-ECD (Human DLL3-ECD): 1.64e-05 s⁻¹
Kon Human DLL3-ECD (Human DLL3-ECD): 67400 M⁻¹ s⁻¹
B2: MAM279-DOTAM: GS-MAM279-tag (SEQ ID NO: 15) conjugated to the chelator DOTAM via C-terminal tag and maleimide connector, no radionuclide (conjugate)
chain: GSDLGKKLLEAARAGQDDEVRELLKAGADVNAKDYFSHTPLHLAARNGHLKIVEVLLKAGADVNAKDFAGKTPLHLAADAGHLEIVEVLLKAGADVNAQDIFGKTPADIAADAGHEDIAEVLQKAAGSPTPTPTTPTPTPTTPTPTPTGSDLGKKLLAAAAQGQDDEVRELLKAGANVNAKDLFGYTPLHLAAWRGHLEIVEVLLKAGADVNAKDAAGETPLHLAAWFGHLEIVEVLLKAGADVNAQDLQGKTPADLAAKEGHEDIAEVLQKAAGSGSC
modifications: DOTAM chelator via maleimide on C-terminal tag; Ankyrin repeat protein with tag (GS-MAM279-tag)
Koff MSA (mouse serum albumin): 0.0425 s⁻¹
Kon MSA (mouse serum albumin): 155000 M⁻¹ s⁻¹

Source: patent US20250332297A1, “DLL3-SPECIFIC BINDING CONSTRUCTS AND THEIR USE IN RADIOTHERAPY” (MOLECULAR PARTNERS AG, priority 2024, published 2025)
